Key:
Test in all cases: cell-based or functional assay
[1] = biological target: angiotensin-converting enzyme (ACE)
[2] = biological target: T1, MMP-7
T1 sequence (P09237 95-267, species assumed, looked up): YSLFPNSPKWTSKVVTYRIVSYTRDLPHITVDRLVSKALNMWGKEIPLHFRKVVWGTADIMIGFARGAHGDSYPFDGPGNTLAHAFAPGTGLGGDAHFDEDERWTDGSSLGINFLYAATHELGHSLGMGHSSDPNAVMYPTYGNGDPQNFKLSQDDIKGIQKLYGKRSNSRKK

[3] = biological target: MMP-9
[4] = biological target: MMP-2

Binder	IC50 for the inhibition of ACE using the substrate FAPGG [1] [µM]	IC50 for the inhibition of MMPs using a fluorescein conjugated gelatin [2] [µM]	IC50 for the inhibition of MMPs using a fluorescein conjugated gelatin [3] [µM]	IC50 for the inhibition of MMPs using a fluorescein conjugated gelatin [4] [µM]
NENLLRFFVAPFPEVFG [NENLLRFFVAPFPEVFG (SEQ ID NO:21)]	55	850	50	275
ENLHLPLPLL [ENLHLPLPLL (SEQ ID NO:19)]	250	275	300	200
LNENLLRFFVAPFPEVFG [LNENLLRFFVAPFPEVFG (SEQ ID NO:20)]	280	300	150	250
VENLHLPLPLL [VENLHLPLPLL (SEQ ID NO:18)]	175	250	300	150
NLHLPLPLL [NLHLPLPLL (SEQ ID NO:12)]	15	1200	600	450
ENLLRFFVAPFPEVFG [ENLLRFFVAPFPEVFG (SEQ ID NO:22)]	250	1000	150	425
FVAPFPEVFG [FVAPFPEVFG (SEQ ID NO:23)]	650	300	400	500
